Measured values as given in US20140105889A1 (published 2014).

B1: GpH7-B3/GpL16-k0 with N325W introduced into GpH7-B3 (antibody, human IgG1)
heavy: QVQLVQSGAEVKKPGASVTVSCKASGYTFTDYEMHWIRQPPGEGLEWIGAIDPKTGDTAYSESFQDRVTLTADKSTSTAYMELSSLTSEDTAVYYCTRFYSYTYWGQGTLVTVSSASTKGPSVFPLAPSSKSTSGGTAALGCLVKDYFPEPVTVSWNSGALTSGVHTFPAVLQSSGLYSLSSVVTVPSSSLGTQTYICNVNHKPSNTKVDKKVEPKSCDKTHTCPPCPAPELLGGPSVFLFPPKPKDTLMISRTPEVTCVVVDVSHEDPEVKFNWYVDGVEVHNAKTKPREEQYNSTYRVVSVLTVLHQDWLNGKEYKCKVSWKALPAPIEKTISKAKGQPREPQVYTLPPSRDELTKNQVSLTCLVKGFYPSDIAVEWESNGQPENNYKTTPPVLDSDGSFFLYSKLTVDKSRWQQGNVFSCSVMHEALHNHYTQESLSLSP
light: DIVMTQSPLSLPVTPGEPASISCQASESLVHSNRNTYLHWYLQKPGQSPQLLIYKVSNRFSGVPDRFSGSGSGTDFTLKISRVEAEDVGVYYCSQNTHVPPTFGQGTKVEIE
notes: Anti-glypican-3 human IgG1; constant region B3 (G1d with K439E); Fc variant; also called B3 variant; copies: 2 + 2
B2: GpH7-B3/GpL16-k0 with N325V introduced into GpH7-B3 (antibody, human IgG1)
heavy: not shown
light: B1 light
notes: as for B1
B3: GpH7-B3/GpL16-k0 with Y300K introduced into GpH7-B3 (antibody, human IgG1)
heavy: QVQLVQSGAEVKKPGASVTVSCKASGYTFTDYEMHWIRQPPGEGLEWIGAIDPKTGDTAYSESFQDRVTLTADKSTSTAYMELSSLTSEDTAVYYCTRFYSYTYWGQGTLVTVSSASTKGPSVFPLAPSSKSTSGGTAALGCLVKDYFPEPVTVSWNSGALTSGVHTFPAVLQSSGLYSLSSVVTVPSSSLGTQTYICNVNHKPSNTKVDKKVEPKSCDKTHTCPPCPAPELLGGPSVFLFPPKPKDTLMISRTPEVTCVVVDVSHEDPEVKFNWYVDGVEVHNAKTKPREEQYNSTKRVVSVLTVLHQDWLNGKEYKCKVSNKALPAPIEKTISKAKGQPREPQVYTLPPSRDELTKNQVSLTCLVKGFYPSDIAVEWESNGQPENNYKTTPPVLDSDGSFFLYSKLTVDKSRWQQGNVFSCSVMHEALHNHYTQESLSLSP
light: B1 light
notes: as for B1
B4: GpH7-B3/GpL16-k0 with S324P introduced into GpH7-B3 (antibody, human IgG1)
heavy: not shown
light: B1 light
notes: as for B1
B5: GpH7-B3/GpL16-k0 with N325K introduced into GpH7-B3 (antibody, human IgG1)
heavy: not shown
light: B1 light
notes: as for B1
B6: GpH7-B3/GpL16-k0 with P329R introduced into GpH7-B3 (antibody, human IgG1)
heavy: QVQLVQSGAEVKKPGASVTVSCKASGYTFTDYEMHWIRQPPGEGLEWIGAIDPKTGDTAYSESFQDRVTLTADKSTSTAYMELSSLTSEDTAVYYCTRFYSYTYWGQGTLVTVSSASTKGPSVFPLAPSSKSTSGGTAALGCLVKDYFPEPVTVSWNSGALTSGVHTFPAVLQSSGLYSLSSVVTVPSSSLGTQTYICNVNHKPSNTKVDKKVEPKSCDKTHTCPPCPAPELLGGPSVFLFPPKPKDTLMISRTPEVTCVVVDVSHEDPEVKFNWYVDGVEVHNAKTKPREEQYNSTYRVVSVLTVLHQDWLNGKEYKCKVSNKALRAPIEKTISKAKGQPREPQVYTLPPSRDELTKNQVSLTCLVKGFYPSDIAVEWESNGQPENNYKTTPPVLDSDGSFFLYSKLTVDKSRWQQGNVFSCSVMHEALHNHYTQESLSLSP
light: B1 light
notes: as for B1
B7: GpH7-B3/GpL16-k0 with P329M introduced into GpH7-B3 (antibody, human IgG1)
heavy: not shown
light: B1 light
notes: as for B1
B8: GpH7-B3/GpL16-k0 with A327M introduced into GpH7-B3 (antibody, human IgG1)
heavy: not shown
light: B1 light
notes: as for B1
B9: GpH7-B3/GpL16-k0 with N325R introduced into GpH7-B3 (antibody, human IgG1)
heavy: not shown
light: B1 light
notes: as for B1
B10: GpH7-B3/GpL16-k0 with A327K introduced into GpH7-B3 (antibody, human IgG1)
heavy: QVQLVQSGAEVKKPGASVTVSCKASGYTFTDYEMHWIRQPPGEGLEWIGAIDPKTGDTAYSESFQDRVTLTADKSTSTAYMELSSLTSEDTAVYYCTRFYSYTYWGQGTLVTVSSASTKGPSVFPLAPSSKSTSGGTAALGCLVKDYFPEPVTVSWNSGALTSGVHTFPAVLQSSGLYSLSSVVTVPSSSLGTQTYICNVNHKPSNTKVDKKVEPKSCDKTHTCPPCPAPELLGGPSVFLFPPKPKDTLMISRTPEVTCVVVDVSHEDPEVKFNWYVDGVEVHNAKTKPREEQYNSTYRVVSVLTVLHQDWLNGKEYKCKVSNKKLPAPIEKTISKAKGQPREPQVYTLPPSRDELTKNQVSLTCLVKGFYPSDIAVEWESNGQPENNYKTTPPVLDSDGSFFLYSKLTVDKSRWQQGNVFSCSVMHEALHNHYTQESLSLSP
light: B1 light
notes: as for B1
B11: GpH7-B3/GpL16-k0 with P329I introduced into GpH7-B3 (antibody, human IgG1)
heavy: not shown
light: B1 light
notes: as for B1
B12: GpH7-B3/GpL16-k0 with P329N introduced into GpH7-B3 (antibody, human IgG1)
heavy: not shown
light: B1 light
notes: as for B1
B13: GpH7-B3/GpL16-k0 with A327H introduced into GpH7-B3 (antibody, human IgG1)
heavy: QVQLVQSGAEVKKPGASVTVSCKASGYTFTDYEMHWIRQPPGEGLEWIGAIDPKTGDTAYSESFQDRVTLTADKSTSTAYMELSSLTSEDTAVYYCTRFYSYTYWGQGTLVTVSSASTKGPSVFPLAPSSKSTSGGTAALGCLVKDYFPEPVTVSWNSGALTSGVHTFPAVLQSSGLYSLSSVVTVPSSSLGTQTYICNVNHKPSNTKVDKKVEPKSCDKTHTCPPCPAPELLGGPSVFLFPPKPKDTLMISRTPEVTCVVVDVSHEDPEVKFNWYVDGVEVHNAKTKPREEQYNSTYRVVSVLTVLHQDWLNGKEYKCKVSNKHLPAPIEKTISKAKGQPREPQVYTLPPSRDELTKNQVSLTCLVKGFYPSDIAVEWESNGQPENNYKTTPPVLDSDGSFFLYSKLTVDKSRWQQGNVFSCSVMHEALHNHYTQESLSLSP
light: B1 light
notes: as for B1
B14: GpH7-B3/GpL16-k0 with L328R introduced into GpH7-B3 (antibody, human IgG1)
heavy: not shown
light: B1 light
notes: as for B1
B15: GpH7-B3/GpL16-k0 with A327V introduced into GpH7-B3 (antibody, human IgG1)
heavy: not shown
light: B1 light
notes: as for B1
B16: GpH7-B3/GpL16-k0 with N325G introduced into GpH7-B3 (antibody, human IgG1)
heavy: not shown
light: B1 light
notes: as for B1
B17: GpH7-B3/GpL16-k0 with N325A introduced into GpH7-B3 (antibody, human IgG1)
heavy: not shown
light: B1 light
notes: as for B1
B18: GpH7-B3 D270A / GpL16-k0 (antibody, human IgG1)
heavy: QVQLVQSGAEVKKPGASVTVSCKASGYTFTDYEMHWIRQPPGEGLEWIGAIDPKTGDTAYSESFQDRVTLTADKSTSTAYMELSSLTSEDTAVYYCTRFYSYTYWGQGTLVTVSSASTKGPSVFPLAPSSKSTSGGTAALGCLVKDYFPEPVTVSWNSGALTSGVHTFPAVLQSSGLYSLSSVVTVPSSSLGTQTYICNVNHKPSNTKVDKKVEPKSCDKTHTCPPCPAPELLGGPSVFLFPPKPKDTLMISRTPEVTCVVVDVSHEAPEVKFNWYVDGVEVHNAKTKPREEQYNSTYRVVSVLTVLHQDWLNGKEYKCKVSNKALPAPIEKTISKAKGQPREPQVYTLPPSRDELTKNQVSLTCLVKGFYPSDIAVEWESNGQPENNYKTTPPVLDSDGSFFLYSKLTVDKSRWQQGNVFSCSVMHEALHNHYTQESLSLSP
light: B1 light
notes: B3 variant: anti-glypican-3 IgG1 (constant region B3 = G1d with K439E) with one substitution, EU numbering; also called B3 variant D270A; copies: 2 + 2
B19: GpH7-B3 D270F / GpL16-k0 (antibody, human IgG1)
heavy: not shown
light: B1 light
notes: B3 variant: anti-glypican-3 IgG1 (constant region B3 = G1d with K439E) with one substitution, EU numbering; also called B3 variant D270F; copies: 2 + 2
B20: GpH7-B3 D270L / GpL16-k0 (antibody, human IgG1)
heavy: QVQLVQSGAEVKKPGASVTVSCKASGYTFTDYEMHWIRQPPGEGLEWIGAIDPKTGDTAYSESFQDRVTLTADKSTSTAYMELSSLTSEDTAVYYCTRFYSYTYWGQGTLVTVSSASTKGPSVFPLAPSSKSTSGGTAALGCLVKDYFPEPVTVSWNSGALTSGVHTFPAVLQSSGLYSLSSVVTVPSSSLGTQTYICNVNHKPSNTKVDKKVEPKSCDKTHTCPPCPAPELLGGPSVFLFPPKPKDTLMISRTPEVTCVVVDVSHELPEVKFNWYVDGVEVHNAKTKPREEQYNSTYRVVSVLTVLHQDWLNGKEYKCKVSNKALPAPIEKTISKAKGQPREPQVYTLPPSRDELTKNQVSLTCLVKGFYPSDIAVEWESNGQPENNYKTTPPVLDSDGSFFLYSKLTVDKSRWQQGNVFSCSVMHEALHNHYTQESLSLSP
light: B1 light
notes: B3 variant: anti-glypican-3 IgG1 (constant region B3 = G1d with K439E) with one substitution, EU numbering; also called B3 variant D270L; copies: 2 + 2
B21: GpH7-B3 D270Q / GpL16-k0 (antibody, human IgG1)
heavy: not shown
light: B1 light
notes: B3 variant: anti-glypican-3 IgG1 (constant region B3 = G1d with K439E) with one substitution, EU numbering; also called B3 variant D270Q; copies: 2 + 2
B22: GpH7-B3 P271H / GpL16-k0 (antibody, human IgG1)
heavy: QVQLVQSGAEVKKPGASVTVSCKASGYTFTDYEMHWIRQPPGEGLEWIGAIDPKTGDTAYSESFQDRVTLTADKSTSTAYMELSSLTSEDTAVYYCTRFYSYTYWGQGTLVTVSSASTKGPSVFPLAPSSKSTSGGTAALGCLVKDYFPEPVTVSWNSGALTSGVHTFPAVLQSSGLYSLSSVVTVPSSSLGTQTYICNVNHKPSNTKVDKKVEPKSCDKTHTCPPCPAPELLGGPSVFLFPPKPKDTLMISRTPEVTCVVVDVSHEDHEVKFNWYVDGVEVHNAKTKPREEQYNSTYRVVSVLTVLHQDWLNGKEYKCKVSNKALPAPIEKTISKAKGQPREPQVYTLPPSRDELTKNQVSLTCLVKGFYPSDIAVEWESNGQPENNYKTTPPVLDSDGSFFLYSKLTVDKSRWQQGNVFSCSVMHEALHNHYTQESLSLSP
light: B1 light
notes: B3 variant: anti-glypican-3 IgG1 (constant region B3 = G1d with K439E) with one substitution, EU numbering; also called B3 variant P271H; copies: 2 + 2
B23: GpH7-B3 D270M / GpL16-k0 (antibody, human IgG1)
heavy: not shown
light: B1 light
notes: B3 variant: anti-glypican-3 IgG1 (constant region B3 = G1d with K439E) with one substitution, EU numbering; also called B3 variant D270M; copies: 2 + 2
B24: GpH7-B3 D270V / GpL16-k0 (antibody, human IgG1)
heavy: not shown
light: B1 light
notes: B3 variant: anti-glypican-3 IgG1 (constant region B3 = G1d with K439E) with one substitution, EU numbering; also called B3 variant D270V; copies: 2 + 2
B25: GpH7-B3 D270S / GpL16-k0 (antibody, human IgG1)
heavy: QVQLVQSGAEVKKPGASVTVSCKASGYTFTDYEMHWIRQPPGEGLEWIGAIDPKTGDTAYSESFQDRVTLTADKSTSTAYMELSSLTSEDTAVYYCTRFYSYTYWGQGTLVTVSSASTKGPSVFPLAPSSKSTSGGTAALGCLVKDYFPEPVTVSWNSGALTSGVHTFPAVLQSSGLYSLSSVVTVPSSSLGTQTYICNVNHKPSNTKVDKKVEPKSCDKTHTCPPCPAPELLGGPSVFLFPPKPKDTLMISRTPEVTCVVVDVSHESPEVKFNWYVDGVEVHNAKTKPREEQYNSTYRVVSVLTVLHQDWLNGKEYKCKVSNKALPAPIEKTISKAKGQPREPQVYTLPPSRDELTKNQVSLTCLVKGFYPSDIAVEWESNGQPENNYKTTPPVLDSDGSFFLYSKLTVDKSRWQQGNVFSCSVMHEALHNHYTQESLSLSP
light: B1 light
notes: B3 variant: anti-glypican-3 IgG1 (constant region B3 = G1d with K439E) with one substitution, EU numbering; also called B3 variant D270S; copies: 2 + 2
B26: GpH7-B3 D270N / GpL16-k0 (antibody, human IgG1)
heavy: not shown
light: B1 light
notes: B3 variant: anti-glypican-3 IgG1 (constant region B3 = G1d with K439E) with one substitution, EU numbering; also called B3 variant D270N; copies: 2 + 2
B27: GpH7-B3 D270I / GpL16-k0 (antibody, human IgG1)
heavy: not shown
light: B1 light
notes: B3 variant: anti-glypican-3 IgG1 (constant region B3 = G1d with K439E) with one substitution, EU numbering; also called B3 variant D270I; copies: 2 + 2
B28: GpH7-B3 D270H / GpL16-k0 (antibody, human IgG1)
heavy: not shown
light: B1 light
notes: B3 variant: anti-glypican-3 IgG1 (constant region B3 = G1d with K439E) with one substitution, EU numbering; also called B3 variant D270H; copies: 2 + 2
B29: GpH7-B3 P271F / GpL16-k0 (antibody, human IgG1)
heavy: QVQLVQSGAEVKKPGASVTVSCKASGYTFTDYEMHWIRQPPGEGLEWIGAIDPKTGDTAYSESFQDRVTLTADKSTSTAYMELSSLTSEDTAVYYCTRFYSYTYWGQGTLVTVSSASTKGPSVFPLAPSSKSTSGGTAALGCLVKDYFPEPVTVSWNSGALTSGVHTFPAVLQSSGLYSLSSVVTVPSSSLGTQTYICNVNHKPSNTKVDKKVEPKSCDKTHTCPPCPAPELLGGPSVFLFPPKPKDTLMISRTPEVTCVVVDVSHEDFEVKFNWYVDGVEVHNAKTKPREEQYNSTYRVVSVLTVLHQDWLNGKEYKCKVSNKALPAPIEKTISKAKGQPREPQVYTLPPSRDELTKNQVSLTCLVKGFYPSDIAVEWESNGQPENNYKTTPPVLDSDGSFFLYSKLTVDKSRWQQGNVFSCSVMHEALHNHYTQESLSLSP
light: B1 light
notes: B3 variant: anti-glypican-3 IgG1 (constant region B3 = G1d with K439E) with one substitution, EU numbering; also called B3 variant P271F; copies: 2 + 2

biological target: T1, human FcγRIIIa(F) (human, UniProt P08637 17-208, limits assumed); experiment: SPR (Biacore), captured antibody, FcγR analyte; bound amount relative to GpH7-B3/GpL16-k0 x100;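 note: receptor response divided by the antibody amount captured on the chip before comparison with the reference antibody, measured at 25 °C in HBS-EP+ running buffer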
T1 construct: also called FcgRIIIaF; FcγRIIIa allotype F158
T1 sequence (P08637 other isoform, or with tags, fused parts or gaps limits assumed): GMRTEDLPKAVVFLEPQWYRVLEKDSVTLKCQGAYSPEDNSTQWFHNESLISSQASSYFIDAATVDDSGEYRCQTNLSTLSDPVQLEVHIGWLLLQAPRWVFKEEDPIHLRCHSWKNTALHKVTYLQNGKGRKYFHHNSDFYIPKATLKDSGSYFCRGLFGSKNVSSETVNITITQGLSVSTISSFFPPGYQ
Protocol: (§1) Interaction between each modified antibody and Fcγ receptor prepared in the manner described above was analyzed using the Biacore T100 (GE Healthcare), Biacore T200 (GE Healthcare), Biacore A100 or Biacore 4000. HBS-EP+ (GE Healthcare) was used for the running buffer, and measurements were carried out at 25° C. The chips used were chips in which antigen peptides, Protein A (Thermo Scientific), Protein A/G (Thermo Scientific) or Protein L (ACTIGEN or BioVision) were immobilized on the Series S Sensor Chip CM5 (GE Healthcare) or Series S Sensor Chip CM4 (GE Healthcare) by amine coupling, or chips in which preliminarily biotinylated antigen peptides were allowed to interact and then immobilized on the Series S Sensor Chip SA (certified) (GE Healthcare). The target antibodies were captured on these sensor chips, Fcγ receptor diluted with the running buffer was allowed to interact, followed by measurement of the amount of bound antibody. The amounts bound were compared between antibodies. However, since the amount of Fcγ receptor bound depends on the amount of captured antibody, the values used for comparison were first corrected by dividing the amount of Fcγ receptor bound by the captured amount of each antibody. Through reaction with 10 mM glycine-HCl at pH 1.5, the sensor chips were regenerated by washing off antibody captured on the sensor chips and used repeatedly.
(§2) Binding strength was evaluated according to the following method based on the results of analyzing the interaction with each FcγR. […] That value was then further multiplied by 100, and the resulting value was used as an indicator of relative binding activity to each FcγR.

Row | Binder | relative binding activity
1 | B1 | -2 % of GpH7-B3/GpL16-k0
2 | B2 | 2 % of GpH7-B3/GpL16-k0
3 | B3 | 35 % of GpH7-B3/GpL16-k0
4 | B4 | 35 % of GpH7-B3/GpL16-k0
5 | B5 | -2 % of GpH7-B3/GpL16-k0
6 | B6 | -2 % of GpH7-B3/GpL16-k0
7 | B7 | 0 % of GpH7-B3/GpL16-k0
8 | B8 | 24 % of GpH7-B3/GpL16-k0
9 | B9 | -1 % of GpH7-B3/GpL16-k0
10 | B10 | 5 % of GpH7-B3/GpL16-k0
11 | B11 | 2 % of GpH7-B3/GpL16-k0
12 | B12 | 3 % of GpH7-B3/GpL16-k0
13 | B13 | 14 % of GpH7-B3/GpL16-k0
14 | B14 | -1 % of GpH7-B3/GpL16-k0
15 | B15 | 18 % of GpH7-B3/GpL16-k0
16 | B16 | 1 % of GpH7-B3/GpL16-k0
17 | B17 | 6 % of GpH7-B3/GpL16-k0

biological target: T2, human FcγRIIIa(F) (human, UniProt P08637 17-208, limits assumed); experiment: SPR (Biacore), antibody captured, FcγR as analyte
T2 construct: also called FcgRIIIaF; FcγRIIIa allotype F158
T2 sequence (P08637 other isoform, or with tags, fused parts or gaps limits assumed): as above
Protocol: as §1, §2

Row | Binder | relative binding activity (amount bound / amount bound by GpH7-B3/GpL16-k0 x100)
18 | B18 | 23 % of GpH7-B3/GpL16-k0
19 | B19 | 12 % of GpH7-B3/GpL16-k0
20 | B20 | 33 % of GpH7-B3/GpL16-k0
21 | B21 | 49 % of GpH7-B3/GpL16-k0
22 | B22 | 50 % of GpH7-B3/GpL16-k0
23 | B23 | 29 % of GpH7-B3/GpL16-k0
24 | B24 | 19 % of GpH7-B3/GpL16-k0
25 | B25 | 17 % of GpH7-B3/GpL16-k0
26 | B26 | 13 % of GpH7-B3/GpL16-k0
27 | B27 | 23 % of GpH7-B3/GpL16-k0
28 | B28 | 11 % of GpH7-B3/GpL16-k0
29 | B29 | 39 % of GpH7-B3/GpL16-k0
